From publication PMC3942068, “Pharmacological characteristics and efficacy of a novel anti-angiogenic antibody FD006 in corneal neovascularization” (BMC Biotechnology, 2014)

What was measured:
[1] = biological target: T1, Vascular endothelial growth factor (VEGF) (Homo sapiens (assumed), UniProt P15692-4); assay: BLI; Octet RED; anti-human IgG biosensor pre-saturated with bevacizumab or FD006 (10 ug/ml); VEGF at 10, 3 and 1 ug/ml in solution; 30°C, PBS; association 5 min, dissociation 10 min; non-linear global fit; conditions: both partners purified
T1 construct: vascular endothelial growth factor A; also called VEGFA; VEGF-A

[2] = biological target: T1, Vascular endothelial growth factor …; assay: cell-based or functional assay

T1 sequence (P15692 whole entry): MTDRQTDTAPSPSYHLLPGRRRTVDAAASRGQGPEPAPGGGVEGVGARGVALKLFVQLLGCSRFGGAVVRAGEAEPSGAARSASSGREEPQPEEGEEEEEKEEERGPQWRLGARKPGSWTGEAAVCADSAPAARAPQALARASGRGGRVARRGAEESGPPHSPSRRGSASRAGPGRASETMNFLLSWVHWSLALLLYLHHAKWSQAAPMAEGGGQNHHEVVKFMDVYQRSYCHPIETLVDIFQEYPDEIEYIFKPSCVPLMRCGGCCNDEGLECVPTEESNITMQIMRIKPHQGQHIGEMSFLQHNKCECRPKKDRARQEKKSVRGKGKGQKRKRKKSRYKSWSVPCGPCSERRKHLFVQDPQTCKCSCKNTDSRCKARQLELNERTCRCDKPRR

Kd [1]: 0.311 nM
koff [1]: 4.59e-05 s⁻¹
kon [1]: 148000 M⁻¹ s⁻¹
IC50 of inhibition of VEGF-induced proliferation of HUVEC (antibody pre-incubated with 10 ng/ml VEGF, 72 h, CCK8) [2]: ~0.031 µg/mL
B1: FD006 (antibody, V domains shown)
VH: EVQLVQSGGGLVKPGGSLRLSCAASGFTLNASWIHWVRQAPGKGLEWVGAIYPYSGYSNYADSVKGRFTISADTSKNTLYLQMNSLRAEDTAVYYCARWGHSTSPYSAMDYWGQGTLVTVSS
VL: DIVMTQSPSSLSVSLGERVTITCRASQVLSRSLAWYQQKPGKAPKLLIYAASNVASGVPSRFSGSGSGTDFTLTISSLQPEDFATYYCQQSNTSPVTFGQGTKVEIK
notes: VH of FD006; heavy chain constant region of the full IgG; VL of FD006; light chain constant region of the full IgG; also called novel anti-VEGFA IgG; anti-VEGF monoclonal antibody FD006; source: recombinant vector transfected into mammalian cells, purified; prepared in our lab
